The target of test [1] is T1, cynomolgus monkey CD3 expressed on cyno primary T cells (cynomolgus monkey, UniProt Q95LI5 22-198; Q95LI8 22-171; Q95LI7 23-181).
T1 construct: whole, on cells; CD3 complex on purified cynomolgus monkey CD3 pan T cells; also called cyno CD3
The test can be described thus: flow cytometry, cyno primary T cells. The method, boiled down: (§1)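 Binding readout: MFI divided by isotype-control MFI (fold over isotype), positive at ≥10. Cells were stained with 25 nM antibody, 30 min, 4° C, in PBS/2% FBS before flow cytometry.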
(Flow cytometry measures light scatter and fluorescence of single cells or particles in a stream.)

In test [2] the target is T2, human CD3 expressed on cells (Jurkat cells; human primary T cells) (human, UniProt P07766 23-207; P04234 22-171; P09693 23-182).
T2 construct: whole, on cells
Kind of test: flow cytometry, 25 nM, human primary T cells. An outline of the steps:
as §1

For test [3], the target named is T2, human CD3 expressed on cells (Jurkat …). The test can be described thus: flow cytometry, 25 nM, Jurkat cells. The method, boiled down:
as §1

The values below come from patent US20230295310A1 (ABCELLERA BIOLOGICS, published 2023).

T1 sequence (Q95LI5 22-198, chain 1 of 3): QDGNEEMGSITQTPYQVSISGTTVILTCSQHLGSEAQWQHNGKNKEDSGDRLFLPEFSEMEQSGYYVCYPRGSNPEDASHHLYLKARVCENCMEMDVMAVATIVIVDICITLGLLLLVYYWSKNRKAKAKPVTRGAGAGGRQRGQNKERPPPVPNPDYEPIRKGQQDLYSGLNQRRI
T1 sequence (Q95LI8 22-171, chain 2 of 3): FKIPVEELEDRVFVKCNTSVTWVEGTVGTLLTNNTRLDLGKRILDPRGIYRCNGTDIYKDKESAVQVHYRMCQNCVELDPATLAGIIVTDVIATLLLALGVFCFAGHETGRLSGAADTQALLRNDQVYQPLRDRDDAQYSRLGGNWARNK
T1 sequence (Q95LI7 23-181, chain 3 of 3): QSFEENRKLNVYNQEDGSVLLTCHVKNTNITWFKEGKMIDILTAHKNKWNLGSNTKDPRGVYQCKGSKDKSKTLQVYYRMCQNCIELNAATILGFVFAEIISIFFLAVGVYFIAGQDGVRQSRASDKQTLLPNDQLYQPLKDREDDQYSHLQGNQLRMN
T2 sequence (P07766 23-207, chain 1 of 3): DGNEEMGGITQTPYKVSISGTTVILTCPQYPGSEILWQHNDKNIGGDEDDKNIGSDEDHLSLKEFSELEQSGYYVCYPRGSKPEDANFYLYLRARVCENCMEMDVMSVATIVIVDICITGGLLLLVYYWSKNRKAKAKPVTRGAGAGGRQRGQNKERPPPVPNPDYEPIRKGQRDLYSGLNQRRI
T2 sequence (P04234 22-171, chain 2 of 3): as the sequence (Q95LI8 22-171, chain 2 of 3) above, with V5I, K15N, V20I, T32S, N33D, N34I, A64T, N74S, L83V, R141H counted along it
T2 sequence (P09693 23-182, chain 3 of 3): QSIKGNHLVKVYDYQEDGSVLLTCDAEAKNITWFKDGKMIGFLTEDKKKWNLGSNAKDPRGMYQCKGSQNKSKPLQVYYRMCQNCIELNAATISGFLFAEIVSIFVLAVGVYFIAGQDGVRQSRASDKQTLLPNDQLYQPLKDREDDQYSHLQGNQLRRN

B1: mAb 276 (antibody, V domains shown)
VH: EVQLVESGGGLVQPGGSLRLSCAASGIPFSTYSMNWVRQAPGKGLEWVSYISGSSRTIYYADSVKGRFTISRDNAKKLLFLQMNSLRDEDTAVYYCAREGDYYDSSGWAYWGQGTLVTVSS
VL: DIQMTQSPSSLSASVGDRVTITCRASQNIYKYLNWYEQKPGRAPKLLIYTTSNLQSGVPSRFSGSGSGTAFTLIISSLQPEDFATYYCQQSYGSPYTFGQGTKLEIK
notes: VH/VL only
B1: the binding result in test [1] is given as “no binding (tested: FOI <10 (FOI >=10 = positive); 25 nM)”. Also, the “Binding (FOI)” value in test [2] stood at 149 FOI; in test [3], 156 FOI.

B2: mAb 283 (antibody, V domains shown)
VH: QVHLVQSGAEVKKPGASVRVSCKASGYTFTGYYIHWLRQAPGQGLEWLGWINPNSGGTNYSQKFRGRVTMTRDTSISTAYMELSRLRSDDTAVYYCARDKVWEQQLVGGFDYWGQGTLVTVSS
VL: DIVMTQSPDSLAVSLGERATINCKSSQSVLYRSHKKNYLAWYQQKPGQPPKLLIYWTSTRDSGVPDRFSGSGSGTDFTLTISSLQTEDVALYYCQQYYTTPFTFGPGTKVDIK
notes: VH/VL only
With B2, the binding result in test [1] is recorded as “no binding (tested: FOI <10 (FOI >=10 = positive); 25 nM)”. Besides, the “Binding (FOI)” value in test [2] stood at 128 FOI; in test [3], 216 FOI.

B3: mAb 263 (antibody, V domains shown)
VH: EVQLLESGGGLVQPGGSLRLSCTPSGITFNNYAMTWVRQAPGKGLEWVSGISVSGGSTYYADSVMGRFTISRDSSKTLYLQMNSLRAEDTAVYYCAKFHSHYYYYMDVWGKGTTVTVSS
VL: SYELTQPLSVSVALGQTARITCGGNNIGSKDVHWYQQKPGQAPVLVIYRDSNRPSGIPERFSGSNSGNTATLTISRAQAGDEADYYCQVWDRRTAVFGGGTQLTAL
notes: VH/VL only
Turning to B3, the binding result in test [1] is “no binding (tested: FOI <10 (FOI >=10 = positive); 25 nM)”. In addition, the “Binding (FOI)” value in test [2] turned out to be 248 FOI; in test [3], 188 FOI.

B4: mAb 284 (antibody, V domains shown)
VH: EVQLLESGGGLVQPGGSLRLSCAASGFTFSSYAMSWVRQAPGKGLEWVSAISGSSGRTYYTDSVKGRFTISRDNSKNTLSLQMNSLRAEDTAVYYCAKKYSYYYYYMDVWGKGTTVTVSS
VL: SYELTQPLSVSVALGQTAKITCGGNNIGSKNVHWYQQKPGQAPVLVIYRDSNRPSGIPERFSGSNSGNTATLTISRAQAGDEADYYCQVWDSSTAVFGGGTQLTAL
notes: VH/VL only
For B4, in test [1], the binding result is reported as “no binding (tested: FOI <10 (FOI >=10 = positive); 25 nM)”. Besides, the “Binding (FOI)” value amounted to 209 FOI in test [2] and 226 FOI in test [3].
